From patent publication EP3884948A1, “CATHEPSIN INHIBITORS AND USES THEREOF” (Ecole Polytechnique Fédérale de Lausanne (EPFL), priority 2020, dated 2021)

Experiments:
[1] = biological target: T1, CTSS-His-WT and CTSS-His-Y132D (Homo sapiens, UniProt P25774); experiment: Mass spectrometry of peptide cleavage by purified CTSS; type: biochemical; details: incubated with purified CTSS-His-WT for 30 minutes
T1 construct: made in house; host or cells: HEK293
Protocol: (§1) For mass spectrometry experiments, CTSS-His WT and Y132D were activated by incubation at 10 µg/mL in Assay buffer (50 mM NaOAc, 5 mM DTT, 250 mM NaCl, pH 4.5) at 37°C for 90 minutes. 2.5 µg of activated CTSS-His WT and Y132D were then co-incubated with 5 ug of peptide in Assay buffer (final volume: 300 µl) at 37°C for 15 or 30 minutes. The reaction was stopped by addition of 50 µM E64 (Selleckchem, cat #S7379) following the co-incubation. Control reactions were prepared by incubating 5 µg of peptide in 300 µl of Assay buffer at 37°C for 15 or 30 minutes. Control and digested peptides were acidified, desalted on C18 StageTips (Rappsilber et al., 2007) and dried by vacuum centrifugation. Samples were resuspended in LC-MS solvent A (2% Acetonitrile, 0.1% TFA) and equivalent sample amounts (3 to 10 ng) injections were performed. Nano-flow separations were achieved on a Dionex Ultimate 3000 RSLC nano UPLC system (Thermo Fischer Scientific) on-line connected with a Q-Exactive Mass-Spectrometer (Thermo Fischer Scientific). Samples were first trapped on a capillary C18 pre-column (Acclaim PepMap™ 100, 75 µm x 2cm) and then separated on a C18 home-made capillary column (ReproSil-Pur C18 AQ 1.9 µm; 50 cm x 75 µm ID) at 250 nl/min over a biphasic 60 min gradient ranging from 99% of solvent A (2% Acetonitrile and 0.1% Formic acid) to 90% of solvent B (90% Acetonitrile and 0.1% Formic acid). The mass spectrometer was operated in Data Dependent acquisition mode using a scan range of 200 to 1500 m/z. MS resolution was set to 70K and MS2 resolution to 17,5K. An isolation window of 2 m/z was used when selecting ions to fragment by HCD and the Normalized Collision Energy (NCE) was set to 27. Data were inspected and dedicated traces extracted with Xcalibur Qual Browser software (Thermo Fischer Scientific). The peptides used were the following: CD74 ([…]) (SEQ ID NO: 16), HSPA1/8 ([…]) (SEQ ID NO: 17), OVA ([…]) (SEQ ID NO: 18), HA ([…]) (SEQ ID NO: 19).

[2] = tested on: CTSS-His-WT and CTSS-His-Y132D; experiment: as above; type: biochemical, human; details: after 15 minutes of incubation with purified CTSS-His-WT and CTSS-His-Y132D
Protocol: as §1

Row | Sequence | cleavage by CTSS [1] | peptides cleaved [2]
1 | NVKNLYEKVKSQLKNNAKEI [SEQ ID NO: 19] | can cleave | –
2 | QLENLRMKLPKPPKPVSKMR [SEQ ID NO: 16] | – | completely cleaved
3 | EEIERMVQEAEKYKAEDEVQ [SEQ ID NO: 17] | – | 35-40%
4 | IKVYLPRMKMEEKYNLTSVL [SEQ ID NO: 18] | can cleave | –
